Experimental data as given in paper PMC9352551, “Energetic determinants of animal cell polarity regulator Par-3 interaction with the Par complex” (The Journal of Biological Chemistry, 2022).

B1: MBP-Par-3 PDZ1-APM (domain or fragment, Drosophila, UniProt O96782 309-987, looked up)
chain: DGEMLLIINEYGSPLGLTALPDKEHGGGLLVQHVEPGSRAERGQLRRDDRILEINGIKLIGLTESQVQEQLRRALESSELRVRVLRGDRNRRQQRDSKVADMVEVATVSPTRKPHAAPVGTSLQVANTRKLGRKIQIMLKKGPNGLGFSVTTRDNPAGAHCPIYIKNILPRGAAIEDGRLKPGDRLLEVDGTPMTGKTQTDVVAILRGMPAGATVRIVVSRQQELAEQADQPAEKSAGVAVAPSVAPPAVPAAAAPAPPIPVQKSSSARSLFTHQQQSQLNESQHFIDAGSESAASNDSLPPSSNSWHSREELTLHIPVHDTEKAGLGVSVKGKTCSNLNASGSSASSGSNGLMKHDGDLGIFVKNVIHGGAASRDGRLRMNDQLLSVNGVSLRGQNNAEAMETLRRAMVNTPGKHPGTITLLVGRKILRSASSSDILDHSNSHSHSHSNSSGGSNSNGSGNNNNSSSNASDNSGATVIYLSPEKREQRCNGGGGGGSAGNEMNRWSNPVLDRLTGGICSSNSAQPSSQQSHQQQPHPSQQQQQQRRLPAAPVCSSAALRNESYYMATNDNWSPAQMHLMTAHGNTALLIEDDAEPMSPTLPARPHDGQHCNTSSANPSQNLAVGNQGPPINTVPGTPSTSSNFDATYSSQLSLETNSGVEHFSRDALGRRSISEKHHA
notes: Par-3 (Bazooka), Drosophila, residues 309-987 (PDZ1 to the aPKC phosphorylation motif); From pMAL; construct as in PMID 32084408; not shown: MBP, N-terminal, kept; His tag, C-terminal, kept

Assays:
Details in all cases: both partners purified
[1] = target: T1, Par complex (his-Par-6, aPKC) (Drosophila, UniProt O97111 1-351; A1Z9X0 1-606); assay: supernatant depletion assay; MBP-Par-3 (C-terminal his-tag, his-purified) on amylose resin (solid phase); soluble protein left in the supernatant quantified on a Coomassie gel; 10 min at 20 °C; 10 mM Hepes pH 7.5, 100 mM NaCl, 1 mM DTT, 200 μM ATP, 5 mM MgCl2, 0.1% Tween-20; 'apparent'
T1 construct: Par-6, Drosophila, residues 1-351; atypical protein kinase C (aPKC), Drosophila, residues 1-606; Construct as in PMID 32084408; also called full Par complex; source: HEK 293F, transfected (pCMV), purified (Ni-NTA or cobalt resin, Source Q anion exchange)
T1 sequence (looked up) 1: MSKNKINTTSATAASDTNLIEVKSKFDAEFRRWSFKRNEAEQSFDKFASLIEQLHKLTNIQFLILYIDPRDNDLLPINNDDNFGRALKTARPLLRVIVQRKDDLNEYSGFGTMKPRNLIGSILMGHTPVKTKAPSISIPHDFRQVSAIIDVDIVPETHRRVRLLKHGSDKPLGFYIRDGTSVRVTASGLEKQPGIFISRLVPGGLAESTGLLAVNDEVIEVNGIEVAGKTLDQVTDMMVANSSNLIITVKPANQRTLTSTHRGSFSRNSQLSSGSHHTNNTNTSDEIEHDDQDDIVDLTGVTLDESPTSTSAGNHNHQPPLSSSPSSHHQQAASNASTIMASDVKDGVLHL
T1 sequence (looked up) 2: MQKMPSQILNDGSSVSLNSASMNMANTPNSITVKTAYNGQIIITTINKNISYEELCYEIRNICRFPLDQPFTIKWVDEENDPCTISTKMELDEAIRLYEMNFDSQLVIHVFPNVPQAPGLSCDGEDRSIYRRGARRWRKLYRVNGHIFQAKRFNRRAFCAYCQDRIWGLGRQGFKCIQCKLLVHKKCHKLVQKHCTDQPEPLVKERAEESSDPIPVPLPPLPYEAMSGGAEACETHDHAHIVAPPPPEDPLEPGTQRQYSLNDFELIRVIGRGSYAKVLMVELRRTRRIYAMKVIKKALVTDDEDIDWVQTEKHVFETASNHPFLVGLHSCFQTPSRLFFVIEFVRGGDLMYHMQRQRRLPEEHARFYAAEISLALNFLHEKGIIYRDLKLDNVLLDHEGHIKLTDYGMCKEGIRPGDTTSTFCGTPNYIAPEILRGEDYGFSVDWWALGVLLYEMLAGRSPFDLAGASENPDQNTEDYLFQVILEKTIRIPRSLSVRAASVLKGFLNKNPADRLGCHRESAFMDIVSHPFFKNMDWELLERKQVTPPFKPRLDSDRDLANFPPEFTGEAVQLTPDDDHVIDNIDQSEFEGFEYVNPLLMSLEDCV

[2] = target: T2, Par complex Par-6ΔPBM (Drosophila, UniProt O97111 1-343; A1Z9X0 1-606); assay: as above
T2 construct: aPKC, Drosophila, residues 1-606; Construct as in PMID 32084408; also called Par complex lacking the Par-6 PBM; Par-6ΔPBM/aPKC; source: HEK 293F, transfected (pCMV), purified (Ni-NTA or cobalt resin, Source Q anion exchange)
T2 sequence (looked up) 1: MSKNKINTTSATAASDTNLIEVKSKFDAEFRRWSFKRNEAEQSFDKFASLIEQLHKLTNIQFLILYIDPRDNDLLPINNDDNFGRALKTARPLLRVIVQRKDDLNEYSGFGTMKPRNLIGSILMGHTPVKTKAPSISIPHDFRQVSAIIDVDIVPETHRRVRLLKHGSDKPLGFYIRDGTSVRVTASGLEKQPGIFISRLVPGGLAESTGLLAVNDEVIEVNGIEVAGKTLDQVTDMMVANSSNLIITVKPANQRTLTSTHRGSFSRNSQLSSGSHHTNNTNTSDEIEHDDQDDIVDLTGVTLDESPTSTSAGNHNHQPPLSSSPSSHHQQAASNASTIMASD
T2 sequence (looked up) 2: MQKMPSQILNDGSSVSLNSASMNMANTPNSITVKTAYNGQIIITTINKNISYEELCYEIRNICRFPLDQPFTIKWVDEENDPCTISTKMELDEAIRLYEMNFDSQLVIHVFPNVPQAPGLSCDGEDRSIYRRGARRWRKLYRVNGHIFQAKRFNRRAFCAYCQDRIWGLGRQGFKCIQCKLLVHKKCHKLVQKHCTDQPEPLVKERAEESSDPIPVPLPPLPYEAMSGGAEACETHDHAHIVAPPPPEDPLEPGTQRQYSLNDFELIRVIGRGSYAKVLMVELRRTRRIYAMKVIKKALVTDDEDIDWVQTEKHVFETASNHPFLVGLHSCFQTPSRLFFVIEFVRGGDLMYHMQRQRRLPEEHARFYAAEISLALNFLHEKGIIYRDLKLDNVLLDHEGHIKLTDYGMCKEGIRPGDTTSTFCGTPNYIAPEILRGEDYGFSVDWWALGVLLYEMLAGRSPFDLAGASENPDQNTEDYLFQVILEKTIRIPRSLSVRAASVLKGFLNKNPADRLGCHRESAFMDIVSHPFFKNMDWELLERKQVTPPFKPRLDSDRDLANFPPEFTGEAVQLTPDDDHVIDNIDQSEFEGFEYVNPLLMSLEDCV

[3] = target: B1; assay: pull-down; GST-aPKC PBM on glutathione resin with Par-3 PDZ1-APM and the Par complex as soluble proteins; room temperature, 30 to 60 min; 10 mM Hepes pH 7.5, 100 mM NaCl, 1 mM DTT, 200 μM ATP, 5 mM MgCl2, 0.1% Tween-20; Coomassie gel
[4] = target: T3, Par-3 PDZ2 (his-purified, soluble) (Drosophila, UniProt O96782 444-533); assay: supernatant depletion assay; GST-fused protein on glutathione agarose resin (solid phase, 'ligand'); soluble protein ('receptor') left in the supernatant at equilibrium quantified on a Coomassie gel; 1 h at 20 °C; 10 mM Hepes pH 7.5, 100 mM NaCl, 1 mM DTT, 200 μM ATP, 5 mM MgCl2, 0.1% Tween-20; single-site equation; 'apparent' for Par-3 variants that could bind more than one Par complex; ATP replaced with ADP in one …
T3 construct: Par-3 (Bazooka), Drosophila, residues 444-533; From pET19; also called soluble PDZ2; source: E. coli BL21 (DE3), his-purified
T3 sequence (looked up): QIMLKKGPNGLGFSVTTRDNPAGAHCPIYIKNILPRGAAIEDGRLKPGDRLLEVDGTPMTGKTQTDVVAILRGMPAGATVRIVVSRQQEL

[5] = target: T4, Par-3 PDZ3 (his-purified, soluble) (Drosophila, UniProt O96782 616-741); assay: as above
T4 construct: Par-3 (Bazooka), Drosophila, residues 616-741; From pET19; source: E. coli BL21 (DE3), his-purified
T4 sequence (looked up): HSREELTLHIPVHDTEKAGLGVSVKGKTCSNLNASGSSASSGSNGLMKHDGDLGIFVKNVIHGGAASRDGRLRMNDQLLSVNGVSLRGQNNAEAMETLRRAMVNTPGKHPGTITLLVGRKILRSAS

[6] = target: B1; assay: supernatant depletion assay; MBP-Par-3 (C-terminal his-tag, his-purified) on amylose resin (solid phase); soluble protein left in the supernatant quantified on a Coomassie gel; 10 min at 20 °C; 10 mM Hepes pH 7.5, 100 mM NaCl, 1 mM DTT, 200 μM ATP, 5 mM MgCl2, 0.1% Tween-20; 'apparent'

B1
binding result [1]: binds | binding result [2]: binds

B2: GST-aPKC PBM (domain or fragment, Drosophila, UniProt A1Z9X0 583-606, looked up)
chain: NIDQSEFEGFEYVNPLLMSLEDCV
notes: From pGEX; construct as in PMID 32084408
binding result [3]: binds | binding result [4]: binds | binding result [5]: binds

B3: aPKC KD-PBM (domain or fragment, Drosophila, UniProt A1Z9X0 259-606, looked up)
chain: YSLNDFELIRVIGRGSYAKVLMVELRRTRRIYAMKVIKKALVTDDEDIDWVQTEKHVFETASNHPFLVGLHSCFQTPSRLFFVIEFVRGGDLMYHMQRQRRLPEEHARFYAAEISLALNFLHEKGIIYRDLKLDNVLLDHEGHIKLTDYGMCKEGIRPGDTTSTFCGTPNYIAPEILRGEDYGFSVDWWALGVLLYEMLAGRSPFDLAGASENPDQNTEDYLFQVILEKTIRIPRSLSVRAASVLKGFLNKNPADRLGCHRESAFMDIVSHPFFKNMDWELLERKQVTPPFKPRLDSDRDLANFPPEFTGEAVQLTPDDDHVIDNIDQSEFEGFEYVNPLLMSLEDCV
notes: From pBH; also called his aPKC kinase domain-PBM; aPKC kinase domain–PBM; source: E. coli BL21 (DE3), his-purified (Ni-NTA) partially under denaturing conditions (8 M urea)
binding result [6]: binds
